Molar concentration needed for the same IL-18 neutralisation as #125-2HmAb (IFN-γ induction in KG-1 cells) data for 1 molecule are collected here from patent publication JP2000236884A.

This assay concerns the target ヒトIL−18 (human interleukin-18, polypeptide having the amino acid sequence of SEQ ID NO 21) (human), Q14116. In words: cell-based or functional assay. To be noted: scale: fold molar concentration against #125-2HmAb.

B1: scFv peptide with His6 of Example 2-2, encoded by pEscFv#125-2H.HT (SEQ ID NO 10) (scFv)
scFv: EIQLQQSGPELVKPGASVKVSCKASGYSFTDYFIYWVKQSHGKSLEWIGDIDPYNGDTSYNQKFRDKATLTVDQSSTTAFMHLNSLTSEDSAVYFCARGLRFWGQGTLVTVSAGGGGGGSGGGGSGGGGSDIQMTQSPSSLSASLGERVSLTCRASQDIGSKLYWLQQEPDGTFKRLIYATSSLDSGVPKRFSGSRSGSDYSLTISSLESEDFVDYYCLQYASSPYTFGGGTKLAIKHHHHHH
In turn, B1 came in with a molar concentration needed for the same IL-18 neutralisation as #125-2HmAb (IFN-γ induction in KG-1 cells) of 2.
